{"source": "paper PMC5458386", "about": "“Crystal structures of human Fabs targeting the Bexsero meningococcal vaccine antigen NHBA” (Acta Crystallographica. Section F, Structural Biology …, 2017)", "binders": {"B1": {"name": "Fab 12E1 (Fab, V domains shown)", "VH": "QVQLVQSGAEVKKPGASVKVSCKASGYIFTSHPIHWVRQAPGQRPEWMGWINAGNGNTKYSQKFQDRVNLTRDTSASTVFMELINLRFEDTAIYYCIRETKFDPWGQGTLVTVSS", "VL": "EIVLTQSPLSLPVTLGQPASISCRSSQDLVYRDGITYLNWFQQRPGQSPRRLIYKVSNRDSGVPDRFSGSGSGTDFTLRISRVEAEDIGVYYCMQGTHWPITFGQGTRLEIKR", "notes": "heavy chain of Fab 12E1 (human VH, human IgG1 CH1) as left after TEV cleavage; light chain of Fab 12E1; Fab cloned from a human monoclonal antibody of a Bexsero vaccinee; also called anti-NHBA human Fab 12E1; source: Expi293 cells, transient transfection, purified from supernatant (StrepTrap HP, TEV cleavage, Superdex 200); not shown: double Strep-tag II, C-terminal, cleaved"}}, "molecular_target": "T1, Neisserial heparin-binding antigen (NHBA) peptide 20 (Neisseria meningitidis strain 2996, UniProt Q9JPP1 18-427)", "T1 construct": "NHBA variant p20 (short variant) of N. meningitidis strain 2996, UniProt Q9JPP1; also called NHBA p20; NHBAp20", "T1 sequence": "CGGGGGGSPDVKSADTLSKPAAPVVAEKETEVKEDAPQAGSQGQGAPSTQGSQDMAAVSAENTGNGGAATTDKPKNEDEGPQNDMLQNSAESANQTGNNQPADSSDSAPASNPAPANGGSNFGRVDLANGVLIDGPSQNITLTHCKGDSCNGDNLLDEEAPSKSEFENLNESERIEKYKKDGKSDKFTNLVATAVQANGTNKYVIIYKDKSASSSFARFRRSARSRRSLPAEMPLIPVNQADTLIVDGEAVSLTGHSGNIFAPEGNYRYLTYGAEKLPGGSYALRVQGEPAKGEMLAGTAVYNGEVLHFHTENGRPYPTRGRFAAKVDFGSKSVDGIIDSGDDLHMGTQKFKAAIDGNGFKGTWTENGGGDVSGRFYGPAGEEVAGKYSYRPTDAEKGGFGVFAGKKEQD", "assay": "SPR; Biacore T200, 25 °C; Fab (800-1100 RU) captured by anti-Fab mAbs (Human Fab Capture Kit) on a CM5 chip; NHBA injected, single-cycle kinetics, five injections 6.25-100 nM, 30 µl/min; HBS-EP (10 mM HEPES, 150 mM NaCl, 3 mM EDTA, 0.05% P20, pH 7.4); 1:1 Langmuir model with mass-transfer term; duplicate", "details": "both partners purified", "data": [{"binder": "B1", "values": [{"measurement": "Kd", "value": 6.2, "unit": "nM"}, {"measurement": "koff", "value": 0.0003, "unit": "s⁻¹"}, {"measurement": "kon", "value": 49000, "unit": "M⁻¹ s⁻¹"}]}]}
